Measured values published in the nanobody polyreactivity screen of Harvey et al. (2022).

Test: yeast display, Sf9 membrane polyspecificity reagent, FACS + sequencing; frameworks hold sequencing errors
Method in brief: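 Galactose induction of a Saccharomyces cerevisiae BJ5465 synthetic nanobody display library ran 36–48 hours. The cells were then stained for 1 hour at 4 °C with 10% biotinylated, detergent-solubilized Sf9 membrane reagent, pulled down on streptavidin microbeads and FACS-sorted into low and high (top ~1%) gates on expression and reagent-binding fluorescence. Labels for polyreactivity follow the gate of origin.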

Sequence	polyreactivity (PSR sort gate)
QVQLVESGGGLVQAGGSLRLSCAASGSIFYIYAMGWYRQAPGKERELVAAISWSGSSTYYADSVKGRFTISRDNAKHTVYLQMNSLKPEDTAVYYCAADTGYGVRYYYWGQGTQVTVSS	high polyreactivity
QVQLVESGGGLVQAGGSLRLSCAASGFIFYYYAMGWYRQAPAKERELVAVITSGGSTNYADSVKGRFTISRDNAKNTVYLQMNSLKPEDTAVYYCAARSRRRDDYWGQGTQVTVSS	high polyreactivity
QVQLVESGGGLVQAGGSLRLSCAASGSIFQDYTMGWYRQAPGKDRELVAAITDNGGSTYYADSVKGRFTISRDNAKNTVYLQMNSLKPEDTAVYYCAKDWDYSAPGYYLYGYWGQGTQVTVSS	low polyreactivity
QVQLVESCGGLVQAGGSLRLSCAASGLIIRWYAMGWYRQAPGKERELVAAITRAGSTYYADSVKWRFTISRDNAKNTVYLQMNSLNPEDTAVYYCAADTNWSPGYIMYYRSDYWGQGTQVTVSS	low polyreactivity
QVQLVESGGGLVQAGGSLRLSCAASGRIFRYNAMGWYRQAPGKERELVAAITGCGGSTYYADSVKGRFTISRDNAKNTVYLQMNSLKPEDTAVYYCNTYTYYSRMDYWGQGTQVTVSS	high polyreactivity
QVQLVESGGGIVQAGGSLRLSCAASGSNFYANPMGWYRQAPGKERELVAAITRSGAGTYYADSVKGRFTISRDNAKNTVYLQMNSLKPEDTAVYDCAKRTKTPTGYDWGGYDYWGQGTQVTVSS	high polyreactivity
QVQLVESGGGLVQAGGSLRLSCAASGSTFYYYAMGWYRQAPGKERELVAAINYNGGSTHYADSVKGRFTISRDNAKNTVYLQMISLKPEDTAVYYCAAKYRLSYTHGYWGQGSQVTVSS	low polyreactivity
QVQLVESGGGLVQAGGSLRISCAASGFTFQYYAMGWYRQAPGKERELVATITTSGGNTYYADSVKGRFTISRDNEKNTVYLQMNCLNPEDTAVYYCAARRYRASSRGYGYWGQGTQVTVSS	high polyreactivity
QVQRVESGGGLVQAGGSLRLSCAASGRTFDSYAMGWYRPAPGKERELVAVITRGVRTYYADSVKGRFTISRDNAKNTVYLQMNSLKPEDTAVYYCAKERYNANYDTSLYDYWGQGTQVTVSS	low polyreactivity
QVQLVESGGGLVQAGGSLRLSCAASGSIFRQYAMGWYRQAPGKERELVAAITYSGGNTYYADSVKGRFTISRDNAKNTVYVQMNSLKPEDTAVYYCAADYGSRSWEYNYWGQGTQVTVSS	low polyreactivity
QVQLVESGGGLVQAGGSLRLSCAASGFTFRRYVMGWYRQAPGKERELVAAISSGGRTNYADSVKGRFTISRYNAKNTVYLQMNSLKPEDTAVYYCGYLDRYHHLRYWGQGTQVTVSS	high polyreactivity
QVQLVESGGGLVQAGGSLRLSCAASGSTFVSNAMGWYRQAPGKERELVAAISSSGGRTSYADSVKGRFTISRDNAKNTVYLQMNSLKPEDTAVYYCAARFKSVDYVQYYYWGQGTQVTVSS	low polyreactivity
QVQLVESGGGLVQAGGSLRISCAPSGSNINAYAIGWYRQSTGKERELVARITRGDGTTYYADSVKGRFTISRDNAMNTVYLQMNRLKPEDNAVYYCNRVEYYSVWGYDYWVQGTQVTVSS	low polyreactivity
QVQLVESGGGLVQAGGSLRLSCAASGSTFEGNAMGWYRQAPGKERELVAAITSGGSTNYADSVKGRFTISRDNAKNNVYLQMNSLKPEDTAVYYCAADTVSFSILYDYWGQGTQVTVSS	low polyreactivity
QVQLVESGGGLVQAGGSLRLICAASGLTFPTYAMAWYRQAPGKERELVAAISRIGGRTYYADSVKGRFTISRDNAKNTVYLQMNSLKPEETAVYYCAADGIKGGVEYDYWGQGTQVTVSS	high polyreactivity
QVQLVESGGGLVQAGGSLRLSCAASGFTFYYNAMGWYRQAPGKERELVAAISTRGGNTYYADSVKGRFTISRDNAKNTVYLQMNSLKPEDTAVYYCARKIRREGRYDYWGQGTQVTVSS	high polyreactivity
QVQLVESGGGLVQAGGSLRLSCAASGSTFLRNAMGWYRQAPGKERELVATITNGGSTYYADSVKGRFTISRDNAKNTVYLQMNSLKPEDTAVYYCATRSSYWSWLRYGYGYWGQGTQVTVSS	low polyreactivity
QVQLVESGGGLVQAGGSLRLSCAASGIIFRKYAMGWYRQAPGKERELVAAISFSGGTTYYADSVKGRFTISRDNAKNTVYLQMNSLKPEDTAVYYCAADPVAYVIDDYYWGQGTQVTVSS	high polyreactivity
QVQLVESGGGLVQAGGSLRLSCAASGITFLGYVMGWYRQAPGKEREFVADITESGGRTYYADSVKGRFTISRDNAKNTVYLQMNSLKPEDTAVYYCAAELSYWGYYYSFDYWGQGTQVTVSS	low polyreactivity
QVQLVESGGGLVQAGGSLRISCAASGRIFFAYAMGWYRQAPGKERELVASITWSGSSTTYADSVKGRFTISRDNAKNTVYLQMNSLKPDDTAVYFCGSDPYFWGYHFRRYGSRGQGTQVTVSS	low polyreactivity
QVQLVESGGGLVQAGGSLRLSCAASGITFDIYAMGWYRQAPGKVRELVAAISGSDGSTYYADSVKGRFTISRDNAKNTVYLQMNSLKPEDTAVYYGAAESEYAGTYESDYWGLGTQVTVSS	low polyreactivity
QVHLVESVGGLVQAGGSLRISCAASGRIFSKYAMGWYRQAPGKDRELVGAITSSTKYADSVKGRFTISRDNAKNTVYLQMHSLKPEDTAVYSCNAEFVWHTYYGADFKMDYWGQGTQVTVSS	high polyreactivity

Sequence	polyreactivity (PSR sort gate)
QVQLVESGGGLVQAGGSLRLSCAASGFIFPDYGMGSYRQAPGKERELVAAIYRNGVSTYYADSVKGRFTISRDNAKNTVYLQMKSLKPEDTAVYYCAARFYRIRRVSKSGYYWGLGTQVTVSS	low polyreactivity
QVQLVESGGGLEQAGGSLRISCAASVSTVRFNAMGWYIQEPGKERQLVAVIRWRGGTTYYADSVKGRFTISRDNAKNTVYLQMNSLKPEDPAVYYCNADYWFSYTWHGSYTVGYWGQGTQVTVSS	high polyreactivity
QLQLVESGGGLVQAGGSLRLSCAASGSTLYWNAMGWYRQAPGKERELVAGISIGGRTNYADSVKGRFTISRDNAKNTVYLQMNSLKPEDTAVYYCNAENTYLGSRYRPYNYWGQGTQVTVSS	low polyreactivity
QVQLVESGGGLVQAGGSLRLICAASGSIFIHNAMGWYRPAPGKERELVAGITTGGSTYYADSVKGRFTISRDNAKNTVYLQMNSLKPEDTAVYYCAVKRPVALTRGNWVTEARDYWGQGTQVTVSS	low polyreactivity
QVQLVESGGGLVQAGGSLRLSCAASGITLRRYAMGWYRQAPGKDRELVDVISVSGGRTHYADSVKGRFTISRDNAKNSVYLQMNSLNPEDTAVYYGAAHFSYRYYTDEVGYWGQGTQVTVSS	high polyreactivity
QVQLVESGGGLVQAGGSLRLSCAASGFTFRHNVMGWYRQAPGKERELVATITWSGGRTSYADSVKGRFTISRDNAKNTVYLQMKSLKPEDTAVYYCAARFFSYSQYAYNYWGQGTQVTVSS	high polyreactivity
QVQLVESGGGLVQAGGSLRLSCAASGRIFRYNAMGWYRQAPGKERELVASISSGTSTTYADSVKGRFTISRDYAKNTVYLQMNSLKPEDTAVYYCAAVPSYRGYRGGYSNLWYYYWGQGTQVTVSS	high polyreactivity
QVQLVESGGGLVQAGGSLRLSCAASGSIFSRYTMGWYRQAPGKERELVAAITSSGVSTYYADSVKGRFTISRDNAKNTVYLQMNSLKPEDTAVYYCAAYSVFRSYDYWGQGTQVTVSS	high polyreactivity
QVQLVESGGGLDQAGGSLRLSCAASGRIFDKYALGCYRHAPGKERELVAAISSSGGSTYYADSVKGRFTISRDNAKNTVYLQMNSLKTEDTAVYYCAKLVVVPFYYWGQGTQVTVSS	high polyreactivity
QFQLVESGGGLVQAGGSLRLSCAASGLIFYFYAMGWYRQAPGKEREFVAAISSGGDTYYADSVKGRFTISRDNAKNTVYLQMNSLKPEDNAVYYCAARRYRRGRSDYWGQGTQVTVSS	high polyreactivity
QVQLVESGGGLVQAGGRLRLSCAASGSIFSKNVMGWYRQAPGKERELVAAISIGGRTYYADSVKGRFTISRDNAKNTVSLQLNSLKPEDTAVYYCNTRFAKRATVGRYDYWGQGTQVTVSS	high polyreactivity
QVQLVESGGGLVQAGGSLRLSCAASGITFDGYDMGWYRQAPGKEREMVATIDSGGITYYADSVKGRFTISRDNAKNTVYLQMNSLKPEDTAVYYCNADEWYYNFDIVEFDYWGQGTQVTVSS	low polyreactivity
QVQLVESGGGLVQAGGSLRISCAASGYTSIIYAMGWYRQAPGTERECVASIRGRSGSTYYADSVKGRFTISRDNAKNTVYLQMNSLKPEDTAVYYCAARARYVNWQGFDYWGQGTQVTVSS	high polyreactivity
QVQLVESGGGLVQAGGSLRLSCAASGRIFWYYAMGWYRQAAGKERELVAAISSGTTKYADSVKGRFTISRDNAKNTVYLQMNSLKPEDTAVYYCNAAAYYPTNYGGYLFEYWGQGTQVTVSS	low polyreactivity
QVQLVESGGGLVQAGGSLRLSCAASGRTFISNAMGWYRQAPVKERELVAAISRSGGSTYYADSVKGRFTISRDNAKNTVYLQMNSLKPEDTAVYYCAATGKQWRTSYDYWGQGTQVTVSS	high polyreactivity
QVQLVESGGGLVQAGGSLRLSCAASGFTFDAYTMGWYREAPGKERELVAAINWSGDTTYYADSVKGRFTISRDNAMNTVYLQMNSLKPEDTAVYYCAAVWLNYGVWFDYWGQGTQVTVSS	high polyreactivity
QVQLVESGGGLVQAGGSLRLSCAASGSTFSIYAMGWSRQAPGKERELVAAITGTVGSTYYADSVKGRFTISRDNAKNTVYLQMNSLNPEDTAVYYCAARQVNYDYDYWGQGTQVTVSS	low polyreactivity
QVQLVESGGGLVQAGGSLRISCAASGSTFDANAMGRYRQAPGKEREMVAANSYSGGTTYYADSVKGRFTISRDNAKNTVYLQMNSLKQEDTAVYYCATRKAFTAGSYNVYYGEYYWGQGTQVTVSS	low polyreactivity
QVQLVESGGGLVQAGGSLRLSCAASGSTFWYYAMGWYRQAPGKERELVAAISVRGGSTYYADSVKGRFTISRDNAKNTVYLQMNSLKPEETGVYYCAAVSYKSHRYDYWGQGTQVTVSS	high polyreactivity
QVQLVESGGGLVQAGGSLRLSCAASGIIFPYNVMGWYRQAPGKERELVAAITRGAASTYYADSVKGRFTISRDNAKNTVYLQMNSLKPEDTAVYYCATDPVSTRGSDYWGQGTQVTVSS	high polyreactivity
QVQLVESGGGLVQAGGSLRLSFAASGSIFYYYVMGWYRQAPGKERELVASIRAGGDNTYYADSVKGRFTISRDSAKNTVYLQMNRLKPEDSEVYYCAKSRGRRRLYPHRYGHDYWGQGTQVTVSS	low polyreactivity
